From article PMC3326523 (Cell, 2012)
Each block holds one binder with its values, some of them ahead of it. Where no end group is shown, it is not given here.

T1: EP300 bromodomain (human, UniProt Q09472 1040-1161)
T1 construct: the crystallised construct may differ; also called KAT3B; source: E. coli BL21(DE3), purified (Ni-NTA, TEV, SEC)
T1 sequence: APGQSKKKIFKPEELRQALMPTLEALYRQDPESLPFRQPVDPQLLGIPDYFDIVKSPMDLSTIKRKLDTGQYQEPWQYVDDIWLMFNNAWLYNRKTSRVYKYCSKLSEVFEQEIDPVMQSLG

B1: CREBBP bromodomain (domain or fragment, human)
chain: RKKIFKPEELRQALMPTLEALYRQDPESLPFRQPVDPQLLGIPDYFDIVKNPMDLSTIKRKLDTGQYQEPWQYVDDVWLMFNNAWLYNRKTSRVYKFCSKLAEVFEQEIDPVMQSLG
notes: the crystallised construct may differ; also called CBP; KAT3A; source: E. coli BL21(DE3), purified (Ni-NTA, TEV, SEC)
B2: KIAA1240 bromodomain (domain or fragment, human)
chain: MEDQEENTLRELRLFLRDVTKRLATDKRFNIFSKPVDIEEVSDYLEVIKEPMDLSTVITKIDKHNYLTAKDFLKDIDLICSNALEYNPDKDPGDKIIRHRACTLKDTAHAIIAAELDPEFNKLCEEIKEARIKRG
notes: KIAA1240 protein, human, bromodomain; the crystallised construct may differ; also called ATAD2B; source: E. coli BL21(DE3), purified (Ni-NTA, TEV, SEC)
B3: BRD3(2), second bromodomain of BRD3 (domain or fragment, human)
chain: GKLSEHLRYCDSILREMLSKKHAAYAWPFYKPVDAEALELHDYHDIIKHPMDLSTVKRKMDGREYPDAQGFAADVRLMFSNCYKYNPPDHEVVAMARKLQDVFEMRFAKMP
notes: BRD3, human, second bromodomain; the crystallised construct may differ; source: E. coli BL21(DE3), purified (Ni-NTA, TEV, SEC)
B4: H4K44 peptide RRGGVKacRISGLY (peptide)
peptide: RRGGVK(Ac)RISGLY
notes: histone H4, human; source: synthetic peptide
B5: H2BK85 peptide AHYNKacRSTITSRE (peptide)
peptide: AHYNK(Ac)RSTITSRE
notes: histone H2B, human; source: synthetic peptide
B6: H3K18 peptide GKAPRKacQLATKY (peptide)
peptide: GKAPRK(Ac)QLATKY
notes: histone H3, human; source: synthetic peptide
B7: H4K5 peptide SGRGKacGGKGLY (peptide)
peptide: SGRGK(Ac)GGKGLY
notes: as for B4
B8: H4K44 peptide GGVKacRISGLI (peptide)
peptide: GGVK(Ac)RISGLI
notes: as for B4
B9: CECR2 bromodomain (domain or fragment)
chain: not shown
notes: CECR2, human, bromodomain; the crystallised construct may differ; source: E. coli BL21(DE3), purified (Ni-NTA, TEV, SEC)
B10: PCAF bromodomain (domain or fragment, human)
chain: GKEKSKEPRDPDQLYSTLKSILQQVKSHQSAWPFMEPVKRTEAPGYYEVIRFPMDLKTMSERLKNRYYVSKKLFMADLQRVFTNCKEYNPPESEYYKCANILEKFFFSKIKEAGLID
notes: P300/CBP-associated factor, human, bromodomain; the crystallised construct may differ; also called KAT2B; source: E. coli BL21(DE3), purified (Ni-NTA, TEV, SEC)
B11: H3K56 peptide GTVALREIRRYQKacS (peptide)
peptide: GTVALREIRRYQK(Ac)S
notes: as for B6
B12: H3K36 peptide ATGGVKacKPHRY (peptide)
peptide: ATGGVK(Ac)KPHRY
notes: histone H3, human; the last Y is Y41 of H3; source: synthetic peptide
B13: H3K56 peptide IRRYQKacSTELLY (peptide)
peptide: IRRYQK(Ac)STELLY
notes: as for B6

What was measured:
Conditions in all cases: both partners purified
FALZ bromodomain [1] = target: FALZ bromodomain (human, UniProt Q12830 2914-3037); assay: ITC; peptide (mM stock) titrated into bromodomain (about 50 μM), by the concentrations in the tables; 10 or 15°C, 50 mM HEPES pH 7.5, 150 mM NaCl; single binding site model
[2] = target: T2, H3K14 peptide KSTGGKacAPRKQY (human, acetyl-lysine at K14 (residue 6 of the peptide)); assay: as above
T2 construct: histone H3, human; source: synthetic peptide

[3] = target: T3, H4K8 peptide RGKGGKacGLGKGY (human, acetyl-lysine at K8 (residue 6 of the peptide)); assay: as above
T3 construct: histone H4, human; source: synthetic peptide

[4] = target: T4, H4K12/16/20 peptide GKacGGAKacRHRKacV (human, acetyl-lysine at K12, K16 and K20 (residues 2, 6 and 10 of the peptide)); assay: ITC; as a1; rows with N of about 0.5 or 0.25: two or more bromodomains on one peptide, apparent binding constants, events not deconvoluted
T4 construct: histone H4, human; source: synthetic peptide

CREBBP bromodomain = target: B1; assay: ITC; peptide (mM stock) titrated into bromodomain (about 50 μM), by the concentrations in the tables; 10 or 15°C, 50 mM HEPES pH 7.5, 150 mM NaCl; single binding site model
[5] = target: B3; assay: as above
FALZ bromodomain [6] = target: FALZ bromodomain (human, UniProt Q12830 2914-3037); assay: as above; remark: listed apart in the source
EP300 bromodomain = target: T1, EP300 bromodomain; assay: as above
[7] = target: T5, H3K9 peptide KQTARKacSTGGKY (human, acetyl-lysine at K9 (residue 6 of the peptide)); assay: as above
T5 construct: histone H3, human; source: synthetic peptide

[8] = target: T2, H3K14 peptide KSTGGKacAPRKQY; assay: as above; remark: listed apart in the source

Kd (FALZ bromodomain [1]): 3.1 ± 0.1 µM
stoichiometry N (FALZ bromodomain [1]): 1
Binder: RRRRRK(Ac)RRRRRY [poly-R peptide RRRRRKacRRRRRY]

Binder: B1
Kd [2]: 734 ± 90.6 µM

Binder: B2
Kd [3]: 150 ± 6.4 µM

Binder: B3
Kd [4]: 61.3 ± 1.9 µM

Binder: B4
Kd (CREBBP bromodomain): 25.3 ± 0.6 µM
stoichiometry N (CREBBP bromodomain): 1 ± 0.099

Binder: B5
Kd (CREBBP bromodomain): 66.2 ± 3.8 µM
stoichiometry N (CREBBP bromodomain): 0.98 ± 0.059

Binder: B6
Kd [5]: 67.1 ± 4.5 µM
stoichiometry N [5]: 1.06 ± 0.068

Binder: B7
Kd (FALZ bromodomain [6]): 175 ± 13.3 µM
stoichiometry N (FALZ bromodomain [6]): 1 ± 0.17

Binder: B8
Kd (CREBBP bromodomain): 82 ± 3.8 µM
stoichiometry N (CREBBP bromodomain): 1.06 ± 0.01
Kd (EP300 bromodomain): 132 ± 6.3 µM
stoichiometry N (EP300 bromodomain): 0.97 ± 0.088

Binder: B9
Kd [7]: 189 ± 11.6 µM
Kd [2]: 43.9 ± 0.8 µM

Binder: B10
Kd [8]: 188 ± 14.6 µM

Binder: B11
Kd (CREBBP bromodomain): 21.3 ± 1.4 µM
stoichiometry N (CREBBP bromodomain): 0.96 ± 0.025
Kd (EP300 bromodomain): 13.4 ± 0.5 µM
stoichiometry N (EP300 bromodomain): 0.98 ± 0.009

Binder: B12
Kd (CREBBP bromodomain): 71.4 ± 1 µM
stoichiometry N (CREBBP bromodomain): 1
stoichiometry N (EP300 bromodomain): 1 ± 0.044

Binder: B13
Kd (CREBBP bromodomain): 13.8 ± 0.4 µM
stoichiometry N (CREBBP bromodomain): 0.97 ± 0.013
